Test system: peptide library, one residue held at a place counted from the S/T acceptor
Assay: relative phosphorylation of the sub-library (ratio to the mean residue at this position); higher = residue favoured
Settings: human
How it was run: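 Each biotinylated degenerate peptide sub-library fixed one residue at one position around a central Ser/Thr and was incubated with a purified recombinant kinase, a human or orthologue construct, in 384-well plates. The 90 min reactions, under kinase-specific conditions, contained 50 μM peptide and 50 μM ATP spiked with γ-32P-ATP. Phosphorylation was read by phosphorimaging spots on streptavidin membranes and quantifying them by densitometry. Relative sub-library phosphorylation expresses each value as a ratio to the mean residue at that position.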

Sequence of CDK9, construct: Full length (P50750 whole entry, looked up): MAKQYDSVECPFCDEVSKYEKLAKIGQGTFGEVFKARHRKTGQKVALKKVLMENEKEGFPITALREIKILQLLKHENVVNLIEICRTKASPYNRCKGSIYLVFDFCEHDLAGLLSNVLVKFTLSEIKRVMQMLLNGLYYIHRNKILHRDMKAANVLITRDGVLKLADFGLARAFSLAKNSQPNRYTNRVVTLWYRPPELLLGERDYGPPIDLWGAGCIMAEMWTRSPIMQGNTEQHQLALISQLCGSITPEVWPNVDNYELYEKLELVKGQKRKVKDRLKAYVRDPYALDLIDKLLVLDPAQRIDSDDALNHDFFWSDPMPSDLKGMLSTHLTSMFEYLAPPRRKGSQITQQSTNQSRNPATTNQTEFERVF
Sequence of MAPK15, construct: Full length (Q8TD08 whole entry, looked up): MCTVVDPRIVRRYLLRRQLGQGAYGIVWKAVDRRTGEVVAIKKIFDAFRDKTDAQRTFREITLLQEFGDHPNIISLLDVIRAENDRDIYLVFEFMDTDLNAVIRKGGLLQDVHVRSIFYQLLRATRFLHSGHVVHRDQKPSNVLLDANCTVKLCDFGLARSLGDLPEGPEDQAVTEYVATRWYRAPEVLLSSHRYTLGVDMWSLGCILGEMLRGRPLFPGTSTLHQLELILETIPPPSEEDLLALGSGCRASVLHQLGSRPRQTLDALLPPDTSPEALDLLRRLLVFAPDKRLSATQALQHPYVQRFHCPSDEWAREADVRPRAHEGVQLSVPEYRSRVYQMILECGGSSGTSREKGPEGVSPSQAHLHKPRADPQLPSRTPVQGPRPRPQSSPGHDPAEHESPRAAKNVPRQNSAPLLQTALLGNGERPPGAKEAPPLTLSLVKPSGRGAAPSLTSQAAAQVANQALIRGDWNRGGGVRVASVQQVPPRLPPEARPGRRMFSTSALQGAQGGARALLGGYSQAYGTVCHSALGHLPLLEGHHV

CDK9, construct: Full length (from UniProt P50750)
relative phosphorylation
Settings | at +1 | at +2 | at +3 | at +4 | at -1 | at -2 | at -3 | at -4 | at -5
A fixed | 0.39 | 0.956 | 0.702 | 0.931 | 1.2 | 1.52 | 1.17 | 1.19 | 1.13
D fixed | 0.167 | 0.493 | 0.429 | 0.79 | 0.328 | 0.322 | 0.339 | 0.607 | 0.572
E fixed | 0.212 | 0.478 | 0.409 | 0.913 | 0.34 | 0.392 | 0.382 | 0.661 | 0.514
F fixed | 0.398 | 0.953 | 0.593 | 1.01 | 0.974 | 0.919 | 1.01 | 1.13 | 1.25
G fixed | 0.943 | 1.35 | 0.85 | 1.13 | 1.34 | 1.12 | 1.82 | 1.14 | 1.01
H fixed | 0.286 | 1.57 | 3 | 1.45 | 1.02 | 0.973 | 1.12 | 1.13 | 1.27
I fixed | 0.306 | 0.708 | 0.547 | 0.871 | 0.353 | 0.956 | 0.902 | 0.868 | 0.858
K fixed | 0.328 | 1.24 | 0.828 | 0.752 | 1.51 | 0.91 | 0.939 | 1.1 | 1.09
L fixed | 0.404 | 0.736 | 0.453 | 0.791 | 0.98 | 0.95 | 0.868 | 0.914 | 0.82
M fixed | 0.347 | 0.769 | 0.478 | 0.893 | 1.75 | 1.53 | 0.963 | 0.969 | 0.853
N fixed | 0.217 | 1.18 | 0.79 | 0.983 | 0.82 | 0.805 | 0.896 | 0.895 | 0.876
P fixed | 11.4 | 0.652 | 1.38 | 0.984 | 1.14 | 1.32 | 1.15 | 1.06 | 1.01
Q fixed | 0.285 | 0.928 | 0.987 | 0.928 | 1.08 | 0.796 | 0.813 | 0.804 | 0.833
R fixed | 0.327 | 2.31 | 2.45 | 0.973 | 1.78 | 1.23 | 1.68 | 1.18 | 1.23
V fixed | 0.388 | 0.734 | 0.545 | 0.84 | 0.559 | 0.821 | 0.939 | 0.855 | 0.892
W fixed | 0.331 | 0.95 | 1.28 | 1.57 | 0.836 | 1.32 | 0.958 | 1.31 | 1.46
Y fixed | 0.315 | 0.999 | 1.28 | 1.19 | 0.992 | 1.12 | 1.05 | 1.19 | 1.33
pThr fixed | 0.374 | 0.622 | 0.475 | 0.979 | 0.284 | 0.487 | 0.615 | 0.723 | 0.719
pTyr fixed | 0.379 | 0.536 | 1.18 | 1.2 | 0.558 | 0.526 | 0.607 | 0.838 | 0.714

MAPK15, construct: Full length (from UniProt Q8TD08)
relative phosphorylation
Settings | at +1 | at +2 | at +3 | at +4 | at -1 | at -2 | at -3 | at -4 | at -5
A fixed | 1.98 | 0.19 | 1.12 | 1.12 | 0.933 | 1.36 | 1.3 | 1.04 | 1.08
D fixed | 0.214 | 0.135 | 0.665 | 0.726 | 0.643 | 0.632 | 0.992 | 0.893 | 0.987
E fixed | 0.31 | 0.115 | 0.655 | 0.643 | 0.517 | 0.59 | 0.941 | 1.01 | 0.859
F fixed | 1.22 | 0.19 | 0.874 | 0.928 | 1.08 | 0.688 | 0.88 | 0.875 | 1.06
G fixed | 1.05 | 0.226 | 1.2 | 1.11 | 0.767 | 0.947 | 1.5 | 1.18 | 1.09
H fixed | 1.41 | 0.573 | 0.984 | 0.976 | 1.06 | 0.738 | 1.04 | 1.09 | 1.07
I fixed | 0.221 | 0.173 | 0.598 | 0.864 | 0.897 | 1.17 | 0.869 | 0.869 | 0.831
K fixed | 0.432 | 0.992 | 1.61 | 1.41 | 1.11 | 0.651 | 0.9 | 0.997 | 1.26
L fixed | 0.27 | 0.189 | 0.85 | 0.95 | 1.55 | 1.53 | 0.985 | 0.959 | 0.754
M fixed | 0.369 | 0.17 | 0.799 | 0.964 | 1.28 | 1.31 | 0.972 | 0.951 | 0.815
N fixed | 0.436 | 0.247 | 0.863 | 0.853 | 0.789 | 0.944 | 0.965 | 1.04 | 0.89
P fixed | 4.86 | 0.192 | 1.05 | 1.11 | 0.93 | 2.07 | 1.1 | 1.06 | 1.19
Q fixed | 0.578 | 0.498 | 0.897 | 1.02 | 0.888 | 1.01 | 1.02 | 1.03 | 1.04
R fixed | 1.04 | 12.5 | 2.31 | 1.46 | 1.23 | 0.817 | 0.928 | 1.1 | 1.24
V fixed | 0.421 | 0.184 | 0.792 | 0.841 | 0.933 | 1.13 | 0.864 | 0.941 | 0.914
W fixed | 0.758 | 0.232 | 0.825 | 1.17 | 1.06 | 0.719 | 0.88 | 1.02 | 0.864
Y fixed | 1.44 | 0.225 | 0.903 | 0.866 | 1.34 | 0.69 | 0.872 | 0.956 | 1.07
pThr fixed | 0.325 | 0.205 | 0.653 | 0.578 | 0.415 | 0.772 | 0.936 | 0.887 | 0.904
pTyr fixed | 0.601 | 0.177 | 0.592 | 0.512 | 0.486 | 0.681 | 0.862 | 0.905 | 1.01

DYRK2, construct: Full length (from UniProt Q92630)
relative phosphorylation
Settings | at +1 | at +2 | at +3 | at +4 | at -1 | at -2 | at -3 | at -4 | at -5
A fixed | 0.832 | 1.06 | 0.927 | 0.956 | 1.27 | 2.04 | 0.9 | 0.971 | 1.08
D fixed | 0.164 | 1.08 | 0.82 | 1.14 | 0.655 | 0.308 | 0.592 | 0.84 | 0.894
E fixed | 0.214 | 0.977 | 0.792 | 0.8 | 0.788 | 0.307 | 0.529 | 0.922 | 0.857
F fixed | 0.209 | 0.977 | 0.929 | 1.23 | 0.7 | 0.518 | 0.457 | 0.843 | 1.03
G fixed | 0.62 | 0.756 | 1.59 | 1.17 | 1.17 | 0.984 | 1.78 | 1.05 | 1.16
H fixed | 0.227 | 0.923 | 0.915 | 0.967 | 0.948 | 0.562 | 0.796 | 0.894 | 1.14
I fixed | 0.368 | 1.26 | 0.8 | 0.996 | 0.702 | 0.897 | 0.571 | 0.843 | 0.833
K fixed | 0.357 | 0.502 | 0.548 | 0.832 | 1.12 | 0.495 | 0.756 | 0.859 | 0.859
L fixed | 0.307 | 1.45 | 1.1 | 0.987 | 0.823 | 0.98 | 0.635 | 0.861 | 0.878
M fixed | 0.314 | 1.48 | 1.05 | 1.22 | 1.16 | 0.915 | 0.608 | 0.969 | 0.843
N fixed | 0.304 | 1.08 | 0.838 | 0.928 | 0.877 | 0.781 | 0.691 | 0.771 | 0.846
P fixed | 9.47 | 0.703 | 2.79 | 1.16 | 1.68 | 2.97 | 0.988 | 1.26 | 0.99
Q fixed | 0.466 | 1.1 | 0.893 | 0.992 | 1.05 | 0.597 | 0.735 | 0.826 | 0.819
R fixed | 1.99 | 0.629 | 0.707 | 0.778 | 1.5 | 2.44 | 5.23 | 2.46 | 1.69
V fixed | 0.772 | 1.23 | 0.682 | 0.918 | 0.898 | 1.28 | 0.573 | 0.781 | 0.833
W fixed | 0.193 | 0.958 | 0.902 | 0.984 | 0.627 | 0.487 | 0.571 | 0.997 | 1.01
Y fixed | 0.195 | 0.829 | 0.72 | 0.932 | 1.04 | 0.444 | 0.588 | 0.853 | 1.24
pThr fixed | 0.399 | 1.77 | 0.745 | 1.28 | 0.415 | 0.56 | 0.647 | 1.03 | 1.03
pTyr fixed | 0.476 | 0.786 | 0.709 | 0.928 | 0.953 | 0.452 | 0.79 | 1.19 | 1.19

Source: the supplement of paper PMC9876800
